Measured values published in patent US20260022144A1, “ANALGESIC POLYPEPTIDE” (Shanghai Puyou Biomedical Co., Ltd., priority 2022, published 2026).

How the values were obtained:
SNL pain model in rats = experiment: SNL (spinal nerve ligation) pain model in rats, mechanical allodynia test; assay type: in vivo, rat; conditions: SD rats, 1 h after administration
Method: A summary of the method for inducing pain model in rats by means of spinal nerve ligation is provided hereinafter. Briefly, male SD rats were anesthetized with Zoletil R 50+xylazine hydrochloride (20 mg/kg+8 mg/kg, intraperitoneal injection). The surgical areas on the waist regions of the animals were shaved, and the skin was disinfected with iodophor and 70% v/v ethanol for three times. The left spinal nerves L5 and L6 of the animals were isolated, tightly ligated with 6-0 silk suture, and the wounds were sutured.
On the 11th day post operation, the animals were acclimated to the experimental environment, 15 minutes/day, for 3 consecutive days.
Briefly, after SNL modeling, 24 animals were randomly divided into 3 groups (Groups 2, 3 and 4, N=8/group). Group 1 (a Sham group, for which the 10 animals received essentially the same operation procedure as other groups but their left spinal nerves L5 and L6 were neither isolated nor ligated) was used as the control group. The test articles were administrated to the animals according to the protocol shown in Table 5, and mechanical allodynia tests were respectively performed 1h after administration according to the method as recited in Example 1.
Briefly, after SNL modeling, 30 animals were randomly divided into 3 groups (Group 1, N=6/group; Groups 2 and 3, N=12/group). Various polypeptides of the present disclosure were administered to the animals from Groups 2 and 3, and the animals were subjected to mechanical allodynia tests 1 h after administration according to the method as recited in Example 1.

[1] = test system: bone pain model induced by Walker 256 breast cancer cells in rats; experiment: Bone pain model induced by Walker 256 breast cancer cells in rats, mechanical allodynia test; assay type: in vivo, rat; conditions: Wistar rats; for pain thresholds (50% PWT) of treatment group vs model group: 60 mg/kg i.v. once a day
Method: 28 female Wistar rats in total were randomly divided into 3 groups based on body weights, with 8 rats in the Sham group (Group 1, administered with vehicle (normal saline)), 10 rats in the model group (Group 2, administered with vehicle (normal saline)) and 10 rats in the treatment group (Group 3, administered with 60 mg SEQ ID NO: 29/kg).
A summary of the method for inducing bone pain model in rats by means of intratibial injection of a suspension of Walker 256 breast cancer cells is provided hereinafter. Briefly, the rats were anesthetized, then 4 μL of a suspension of Walker 256 cancer cells (containing about 4× 10^5 cells) was injected into the tibia cavity of the right hind limb of the rats (day 0). The rats in Sham group were injected with an equal volume of normal saline.
After injection of cancer cells (day 0), administration was started on the next day (day 1) and performed once a day for a consecutive period of 14 days (day 1, day 2 . . , day 14, respectively).
The rats were subjected to mechanical allodynia tests 1 h before and after administration of the test articles according to the method as recited in Example 1 on day 7 (D7) and day 14 (D14), respectively.

[2] = test system: eye pain (ocular neuropathic pain) model induced by benzalkonium chloride in mice; experiment: Eye pain model induced by benzalkonium chloride in mice, scratching behavior test; assay type: in vivo, mouse; conditions: eye drops TID, 30 μg/ml, 10 μL (0.3 μg/eye/each time), after 2 days of treatment, 2M NaCl challenge, vs model group
Method: C57BL/6JNifdc mice were used in the experiment. Briefly, each of the mice was fixed with one hand, with one eye prop opened with the other hand (and fixed with another lab technician). The modeling drug, i.e., 0.1% benzalkonium chloride was dripped into one eye (twice a day (9:00, 17:00), 10 μL each time) and maintained for 30 seconds. The operation was repeated for six days.
In order to evaluate the pathological changes at the front of the mice's eyes, slit lamp photos were taken on the third day since the beginning of modeling. According to the photographic results, the mice's eyes were scored from three viewing angles, including corneal opacity (0: clear, 1: visible opacity, 2: difficult to find, 3: pupil invisible), conjunctival edema (0: absent, 1: slight edema, 2: edema, 3: severe edema) and congestion (0: absent, 1: slight congestion, 2: congestion, 3: severe congestion, 4: hemorrhage), to access and evaluate the damages at the front of the mice's eyes. The mice were then randomized into groups. […]
Scratching behavior test: The eyes were administered for two consecutive days. […] After acting for 5 seconds, the mice were released back into the cage, and the numbers of wipes over the eyes within 30 seconds were counted.

B1: SEQ ID NO: 29: exemplary polypeptide of the present disclosure; artificial polypeptide of formula (I) X-Y (protein)
chain: SEKKQPVDLGLLEEDDEFEEFPAEDWAGLDEDEDAHVWEDNWDDDNVEDDFSNQLRATVLLMILVAETPYGAYVLHQKGRMASAFLAA
Q: How did the “analgetic effect (50% PWT)” value (SNL pain model in rats; i.v. single administration (SEQ ID NO: 29 30 and 60 mg/kg; SEQ ID NO: 90 and 93 60 mg/kg)) turn out when B1 was run?
A: Its value is “certain analgetic effect”.

Q: What about the “analgetic effect of 60 mg/kg compared with 30 mg/kg (50% PWT)” value (SNL pain model in rats; i.v. single administration) of the same molecule?
A: Its value is “much higher than that produced from the dose of 30 mg SEQ ID NO: 29/kg”.

Q: What about the “course of pain thresholds (50% PWT) of treatment group vs model group” value ([1]; 60 mg/kg i.v. once a day for 14 days) of the same molecule?
A: The value was “increased gradually with the increase of the number of administrations”.

Q: And the “pain thresholds (50% PWT) of treatment group vs model group” value ([1]; 1 h after administration on day 7 (D7))?
A: Its value is “increased significantly”.

Q: What about the “pain thresholds (50% PWT) of treatment group vs model group” value ([1]; 1 h after administration on day 14 (D14)) of the same molecule?
A: Its value is “increased significantly”.

Q: And the “pain thresholds (50% PWT) of treatment group vs model group” value ([1]; before administration on day 7 (D7))?
A: Its value is “no significant difference”.

Q: And the “pain thresholds (50% PWT) of treatment group vs model group” value ([1]; before administration on day 14 (D14))?
A: The value was “increased significantly”.

Q: And the “numbers of wipes over the eyes within 30 seconds” value [2]?
A: Its value is “significantly decreased numbers of wiping over the eyes (P<0.01)”.
